Measured values: the supplement of paper PMC9732359
± gives the uncertainty stated by the source.

Experiment: protein stability index of a GFP-peptide fusion (yeast GPS) (PSI 1-4); higher = more stable; sorted into four equal gates, so the index is relative within each strain
How it was run: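 Tiled 17-residue yeast protein peptides were fused downstream of GFP in a plasmid that also expresses Cherry, and the pooled library was carried in yeast. Mid-log cultures in leucine-free medium were sorted into four equal gates by GFP/Cherry fluorescence ratio, and plasmids from each gate were PCR-amplified and Illumina-sequenced, with reads assigned to strains by barcodes. The protein stability index for each peptide was each gate's read frequency times its gate number, summed.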

Sequence	protein stability index (ubr1∆)	protein stability index (doa10∆)	protein stability index (pdr5∆)	protein stability index (san1∆)
ALLRSGRLDRKIEFPLP [RPT5]	3.43 ± 0.18	–	–	–
EVLCSRIIEKSVRRSGA [RRP45]	2.94 ± 0.1	2.38 ± 0.066	3.21 ± 0.076	2.41 ± 0.1
KLHMGTEDVRLAPELNQ [RPL31B]	3.05 ± 0.04	2.81 ± 0.061	3 ± 0.067	2.86 ± 0.049
SKKLDVTVEQLRSIYHQ [NSL1]	2.08 ± 0.057	2.42 ± 0.067	2.25 ± 0.06	1.85 ± 0.055
KLDLFKYFTELSHYIRQ [MED1]	1.33 ± 0.079	1.52 ± 0.084	1.44 ± 0.14	1.24 ± 0.17
MNGNGKPGIPRGNTKIH [SIR3]	3.25 ± 0.18	–	2.83 ± 0.23	3.32 ± 0.094
VRWIETQDVFLKDFNTE [FAS2]	3.154 ± 0.021	3.227 ± 0.03	3.065 ± 0.026	3.014 ± 0.025
FEIDGDVIHFEDSSILQ [PCI8]	3.46 ± 0.044	3.15 ± 0.083	3.46 ± 0.072	3.04 ± 0.066
ENSANSTVASALDTNGT [SIR4]	2.86 ± 0.069	3.08 ± 0.097	3.18 ± 0.073	2.79 ± 0.09
KITSPIRSVALNDSNVK [RRP42]	2.94 ± 0.078	2.6 ± 0.12	2.42 ± 0.11	2.59 ± 0.1
YSKIPNILSNKPGQNNR [RRP6]	1.77 ± 0.047	2.16 ± 0.087	2.37 ± 0.074	1.99 ± 0.16
ANAVQNNNGNSAASKKK [SRP21]	2.93 ± 0.11	3.06 ± 0.11	3.29 ± 0.11	2.96 ± 0.092
VEIAFLFRAIYLYCLDN [YCG1]	1.2 ± 0.05	1.54 ± 0.065	1.3 ± 0.054	1.21 ± 0.11
WSKESNYDCKVISIVGG [PRP28]	2.74 ± 0.094	3.06 ± 0.11	3.06 ± 0.11	2.31 ± 0.097
VVEISNGNTSSKTVVTL [FAS1]	3.26 ± 0.06	3.11 ± 0.06	3.18 ± 0.05	3.28 ± 0.072
DQNEFLLERTREIHNEA [FAS2]	3.08 ± 0.067	3.12 ± 0.092	3.13 ± 0.08	2.99 ± 0.063
INAEEIVDFTLPPPPPP [PRP8]	3.04 ± 0.045	2.94 ± 0.07	3.06 ± 0.053	3.01 ± 0.047
LGGDSDEANIEIDPLTG [BRN1]	–	3.05 ± 0.18	3.48 ± 0.27	2.92 ± 0.18
LNQINGLNNDFLFQNIN [GRR1]	1.8 ± 0.086	1.6 ± 0.1	2.13 ± 0.088	2.01 ± 0.11
CNNINKGLKENDVAVEK [BRR2]	3.43 ± 0.12	3.17 ± 0.12	3.68 ± 0.18	3.25 ± 0.09
IALNLDTTVNDCLDKLL [SNF2]	2.9 ± 0.073	2.54 ± 0.14	3.06 ± 0.14	2.65 ± 0.1
TKKISNFNSSLHKRQQF [YJL039C/NUP192]	1.6 ± 0.11	2.73 ± 0.13	2.79 ± 0.12	1.4 ± 0.18
ARKYLQTRWGLPSGRQD [FAS2]	3.16 ± 0.11	2.54 ± 0.087	2.09 ± 0.12	2.12 ± 0.14
PAEHPFISAARYKPKSH [RPC37]	3.13 ± 0.066	2.99 ± 0.1	3.04 ± 0.082	2.66 ± 0.064
NVGELIEKNVMESIGSD [RRP4]	2.39 ± 0.065	2.54 ± 0.059	3.03 ± 0.075	2.62 ± 0.098
QAQAQAQAQAQAQAQAH [GAL11]	3.1 ± 0.1	2.84 ± 0.071	3.05 ± 0.084	2.84 ± 0.084
RPLQKIMLLQLELGSCF [SIN4]	1.42 ± 0.061	1.41 ± 0.058	1.54 ± 0.065	1.79 ± 0.1

Sequence	protein stability index (ubr1∆)	protein stability index (doa10∆)	protein stability index (pdr5∆)	protein stability index (san1∆)
HTSSNSREIAQPSSSRY [SMB1]	3.22 ± 0.058	3.17 ± 0.11	2.97 ± 0.065	3.02 ± 0.054
SNRCIVFSKKEPFPHSK [CSN12]	2.72 ± 0.043	2.58 ± 0.052	2.85 ± 0.047	2.81 ± 0.065
INTHIETLAYNSLKETL [SNF2]	2.61 ± 0.042	2.48 ± 0.054	2.76 ± 0.063	2.5 ± 0.047
AFGSSATDISGELRDYI [YJR042W/NUP85]	3.28 ± 0.083	3.26 ± 0.14	3.54 ± 0.13	2.81 ± 0.11
ERQQENLLIQRLNFNQN [SWI3]	3.19 ± 0.055	3.26 ± 0.071	3.38 ± 0.073	3.2 ± 0.042
LALPVFHIGYFKATIQI [RPO31]	1.58 ± 0.044	1.51 ± 0.059	1.49 ± 0.043	1.87 ± 0.098
AEEALEPSYIFEYLATV [PRE4]	2.73 ± 0.045	2.66 ± 0.059	2.44 ± 0.067	2.54 ± 0.061
PNEFMQFKSKEVEKAHP [PRP8]	3.25 ± 0.091	3.16 ± 0.08	3.37 ± 0.11	3.23 ± 0.052
RIKEMYWKLWIDEPFNL [FAS1]	2.91 ± 0.075	3.39 ± 0.086	3.25 ± 0.078	2.76 ± 0.12
ADSAVNRQTLMFTATMT [PRP28]	2.65 ± 0.049	2.6 ± 0.056	2.72 ± 0.049	2.58 ± 0.046
YNSRPRSVRIPWYNNPV [PRP8]	2.49 ± 0.049	2.34 ± 0.083	2.22 ± 0.062	1.73 ± 0.088
NITKNLKTFNGSLALLK [POP4]	3.13 ± 0.1	–	3.19 ± 0.15	2.93 ± 0.082
DNNSSLNVSNTKENGDF [PRP8]	3.39 ± 0.074	3.17 ± 0.083	2.84 ± 0.084	2.9 ± 0.058
SSDGALCMDSSYIGTII [POP1]	3.23 ± 0.14	3.09 ± 0.09	2.71 ± 0.083	3.04 ± 0.12
TCQILESGEDEAEFSLR [RRP46]	3.46 ± 0.19	–	2.62 ± 0.28	–
ELNIIPRDLLRVIIQEL [PRP28]	1.15 ± 0.045	1.15 ± 0.062	1.4 ± 0.061	1.38 ± 0.21
MDALTLMKCCHEAYSII [RRP45]	1.76 ± 0.12	1.77 ± 0.063	2.04 ± 0.071	1.84 ± 0.099
HVKVNDKKEMTIYNNIR [SIR3]	3.228 ± 0.032	3.04 ± 0.052	2.91 ± 0.062	2.87 ± 0.04
IIAVKGSGSRLNRLPAA [RPL23A]	1.42 ± 0.049	1.42 ± 0.051	1.17 ± 0.049	1.23 ± 0.099
GLHSSEYKLRSLTLSFI [ECM29]	2.46 ± 0.049	2.18 ± 0.057	2.21 ± 0.061	2.41 ± 0.066
NNSTGIANDNVITPHFI [SWI1]	2.9 ± 0.033	2.69 ± 0.041	2.95 ± 0.042	2.86 ± 0.031
KTRNPLTHSTPKNFGIG [RPL8A]	3.07 ± 0.054	3.02 ± 0.084	2.9 ± 0.058	2.95 ± 0.046
TNQDGLKFVKVRVRTTK [RPB2]	3.2 ± 0.088	2.42 ± 0.084	3.05 ± 0.12	3.3 ± 0.1
QFDIQSPLYMDTETFDT [YML103C/NUP188]	3.28 ± 0.06	3.11 ± 0.093	2.88 ± 0.064	3.02 ± 0.063
PQVLINRDPVKHAEFDL [SIR2]	2.79 ± 0.1	2.39 ± 0.14	3.04 ± 0.093	3.08 ± 0.12
YFFQLQIRSADEPMTTF [RPC11]	3.26 ± 0.071	2.77 ± 0.063	2.91 ± 0.068	3.06 ± 0.058
QNCWSLINDSYINDVHL [SSN8]	3.23 ± 0.055	3.35 ± 0.063	3.22 ± 0.069	3.34 ± 0.054
